T1: EsCas13d, nuclease-dead (Eubacterium siraeum, UniProt B0MS50, R295A;H300A;R849A;H854A)
T1 sequence: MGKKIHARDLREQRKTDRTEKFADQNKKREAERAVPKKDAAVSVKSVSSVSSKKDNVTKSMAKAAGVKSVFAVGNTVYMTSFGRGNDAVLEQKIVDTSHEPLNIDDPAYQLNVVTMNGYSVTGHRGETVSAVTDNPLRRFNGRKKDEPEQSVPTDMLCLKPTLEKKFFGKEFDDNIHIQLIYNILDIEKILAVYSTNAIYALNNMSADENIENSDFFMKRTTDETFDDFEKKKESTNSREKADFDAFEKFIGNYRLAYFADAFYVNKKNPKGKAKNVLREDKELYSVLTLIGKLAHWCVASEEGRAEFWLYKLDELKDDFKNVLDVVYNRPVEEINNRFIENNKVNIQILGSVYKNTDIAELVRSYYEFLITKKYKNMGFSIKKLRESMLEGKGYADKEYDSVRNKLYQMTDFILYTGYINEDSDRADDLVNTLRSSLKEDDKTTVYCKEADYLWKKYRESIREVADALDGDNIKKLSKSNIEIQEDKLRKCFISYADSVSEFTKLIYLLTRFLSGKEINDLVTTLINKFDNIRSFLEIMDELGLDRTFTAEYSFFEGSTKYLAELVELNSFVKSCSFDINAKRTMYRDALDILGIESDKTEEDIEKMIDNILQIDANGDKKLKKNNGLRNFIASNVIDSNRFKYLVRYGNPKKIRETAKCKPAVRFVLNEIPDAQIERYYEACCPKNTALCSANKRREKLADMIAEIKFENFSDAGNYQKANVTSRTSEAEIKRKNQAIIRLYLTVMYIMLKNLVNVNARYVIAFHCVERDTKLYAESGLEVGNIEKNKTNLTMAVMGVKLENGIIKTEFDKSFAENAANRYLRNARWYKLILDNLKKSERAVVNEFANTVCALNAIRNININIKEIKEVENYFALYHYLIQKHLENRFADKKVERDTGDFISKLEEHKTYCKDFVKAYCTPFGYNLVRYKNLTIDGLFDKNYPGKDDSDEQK


The binders below were run against T1, EsCas13d, nuclease-dead (assay: crRNA (strand 1, pre-loaded); Mg2+; 40 mM Tris-HCl pH 7.5, 150 mM NaCl, 6 mM MgCl2, 1 mM DTT, 0.1% Tween-20, 0.2 mg/ml BSA; 25 C; 10 min per concentration, then washed). Settings: tags: His6-TwinStrep-SUMO cleaved; N-terminal SNAP kept (SNAP-Surface 488); label: 3' end held by stalled T7 RNA polymerase.

Binder | Kd
target 3 U7C (mixed) RNA 1: CACCCGUGCAAAAUUGCAGGGGUCUAAAACGACCUGAAUAUUUCAGAUCAAA RNA 2: GGGAAUGGAUCCACAUCUACGAAUUCGUUUUUGAUCUGAAAUAUCCAGGUCUGCAGAUCGGAAGAGCACACGU | 56 ± 7 nM
target 3 insU 3' of 22,insC 3' of 22 (mixed) RNA 1: CACCCGUGCAAAAUUGCAGGGGUCUAAAACGACCUGAAUAUUUCAGAUCAAA RNA 2: GGGAAUGGAUCCACAUCUACGAAUUCGUUUUCUUGAUCUGAAAUAUUCAGGUCUGCAGAUCGGAAGAGCACACGU | 39.5 ± 6 nM
target 3 insG 3' of 8,insG 3' of 6 (mixed) RNA 1: CACCCGUGCAAAAUUGCAGGGGUCUAAAACGACCUGAAUAUUUCAGAUCAAA RNA 2: GGGAAUGGAUCCACAUCUACGAAUUCGUUUUUGAUCUGAAAUAUGUCGAGGUCUGCAGAUCGGAAGAGCACACGU | 31.6 ± 2.7 nM
target 3 C16U,U22A (mixed) RNA 1: CACCCGUGCAAAAUUGCAGGGGUCUAAAACGACCUGAAUAUUUCAGAUCAAA RNA 2: GGGAAUGGAUCCACAUCUACGAAUUCGUUAUUGAUUUGAAAUAUUCAGGUCUGCAGAUCGGAAGAGCACACGU | 70 ± 11 nM
target 3 insG 3' of 2,insG 3' of 2 (mixed) RNA 1: CACCCGUGCAAAAUUGCAGGGGUCUAAAACGACCUGAAUAUUUCAGAUCAAA RNA 2: GGGAAUGGAUCCACAUCUACGAAUUCGUUUUUGAUCUGAAAUAUUCAGGUGGCUGCAGAUCGGAAGAGCACACGU | 22 ± 2.05 nM
target 3 insC 3' of 7,insA 3' of 3 (mixed) RNA 1: CACCCGUGCAAAAUUGCAGGGGUCUAAAACGACCUGAAUAUUUCAGAUCAAA RNA 2: GGGAAUGGAUCCACAUCUACGAAUUCGUUUUUGAUCUGAAAUAUUCCAGGAUCUGCAGAUCGGAAGAGCACACGU | 68 ± 14 nM
target 3 insC 3' of 9,insC 3' of 3 (mixed) RNA 1: CACCCGUGCAAAAUUGCAGGGGUCUAAAACGACCUGAAUAUUUCAGAUCAAA RNA 2: GGGAAUGGAUCCACAUCUACGAAUUCGUUUUUGAUCUGAAAUACUUCAGGCUCUGCAGAUCGGAAGAGCACACGU | 88 ± 24.5 nM
target 3 del6 (mixed) RNA 1: CACCCGUGCAAAAUUGCAGGGGUCUAAAACGACCUGAAUAUUUCAGAUCAAA RNA 2: GGGAAUGGAUCCACAUCUACGAAUUCGUUUUUGAUCUGAAAUAUUAGGUCUGCAGAUCGGAAGAGCACACGU | 38.4 ± 3.55 nM
target 3 insU 3' of 16,insG 3' of 2 (mixed) RNA 1: CACCCGUGCAAAAUUGCAGGGGUCUAAAACGACCUGAAUAUUUCAGAUCAAA RNA 2: GGGAAUGGAUCCACAUCUACGAAUUCGUUUUUGAUCUUGAAAUAUUCAGGUGCUGCAGAUCGGAAGAGCACACGU | 16.1 ± 1.9 nM
target 3 insC 3' of 9,insU 3' of 5 (mixed) RNA 1: CACCCGUGCAAAAUUGCAGGGGUCUAAAACGACCUGAAUAUUUCAGAUCAAA RNA 2: GGGAAUGGAUCCACAUCUACGAAUUCGUUUUUGAUCUGAAAUACUUCAUGGUCUGCAGAUCGGAAGAGCACACGU | 76.5 ± 12.5 nM
target 3 U2G,U20C (mixed) RNA 1: CACCCGUGCAAAAUUGCAGGGGUCUAAAACGACCUGAAUAUUUCAGAUCAAA RNA 2: GGGAAUGGAUCCACAUCUACGAAUUCGUUUUCGAUCUGAAAUAUUCAGGGCUGCAGAUCGGAAGAGCACACGU | 50 ± 19 nM
target 3 U2C,U8G (mixed) RNA 1: CACCCGUGCAAAAUUGCAGGGGUCUAAAACGACCUGAAUAUUUCAGAUCAAA RNA 2: GGGAAUGGAUCCACAUCUACGAAUUCGUUUUUGAUCUGAAAUAGUCAGGCCUGCAGAUCGGAAGAGCACACGU | 95.5 ± 20.5 nM
target 3 insC 3' of 15,insC 3' of 11 (mixed) RNA 1: CACCCGUGCAAAAUUGCAGGGGUCUAAAACGACCUGAAUAUUUCAGAUCAAA RNA 2: GGGAAUGGAUCCACAUCUACGAAUUCGUUUUUGAUCUCGAAACUAUUCAGGUCUGCAGAUCGGAAGAGCACACGU | 46 ± 4 nM
target 3 insU 3' of 9,insG 3' of 7 (mixed) RNA 1: CACCCGUGCAAAAUUGCAGGGGUCUAAAACGACCUGAAUAUUUCAGAUCAAA RNA 2: GGGAAUGGAUCCACAUCUACGAAUUCGUUUUUGAUCUGAAAUAUUUGCAGGUCUGCAGAUCGGAAGAGCACACGU | 84.5 ± 18.5 nM
target 3 insG 3' of 5,insA 3' of 2 (mixed) RNA 1: CACCCGUGCAAAAUUGCAGGGGUCUAAAACGACCUGAAUAUUUCAGAUCAAA RNA 2: GGGAAUGGAUCCACAUCUACGAAUUCGUUUUUGAUCUGAAAUAUUCAGGGUACUGCAGAUCGGAAGAGCACACGU | 39 ± 6 nM
target 3 U2G,U22C (mixed) RNA 1: CACCCGUGCAAAAUUGCAGGGGUCUAAAACGACCUGAAUAUUUCAGAUCAAA RNA 2: GGGAAUGGAUCCACAUCUACGAAUUCGUUCUUGAUCUGAAAUAUUCAGGGCUGCAGAUCGGAAGAGCACACGU | 19.8 ± 3.55 nM
target 3 insA 3' of 21,insC 3' of 3 (mixed) RNA 1: CACCCGUGCAAAAUUGCAGGGGUCUAAAACGACCUGAAUAUUUCAGAUCAAA RNA 2: GGGAAUGGAUCCACAUCUACGAAUUCGUUUUAUGAUCUGAAAUAUUCAGGCUCUGCAGAUCGGAAGAGCACACGU | 35 ± 5 nM
target 3 insU 3' of 5,insA 3' of 4 (mixed) RNA 1: CACCCGUGCAAAAUUGCAGGGGUCUAAAACGACCUGAAUAUUUCAGAUCAAA RNA 2: GGGAAUGGAUCCACAUCUACGAAUUCGUUUUUGAUCUGAAAUAUUCAUGAGUCUGCAGAUCGGAAGAGCACACGU | 9.9 ± 1.8 nM
target 3 C1G,A5U (mixed) RNA 1: CACCCGUGCAAAAUUGCAGGGGUCUAAAACGACCUGAAUAUUUCAGAUCAAA RNA 2: GGGAAUGGAUCCACAUCUACGAAUUCGUUUUUGAUCUGAAAUAUUCUGGUGUGCAGAUCGGAAGAGCACACGU | 10.1 ± 1.55 nM
target 3 insC 3' of 13,insA 3' of 2 (mixed) RNA 1: CACCCGUGCAAAAUUGCAGGGGUCUAAAACGACCUGAAUAUUUCAGAUCAAA RNA 2: GGGAAUGGAUCCACAUCUACGAAUUCGUUUUUGAUCUGACAAUAUUCAGGUACUGCAGAUCGGAAGAGCACACGU | 70 ± 13 nM
target 3 C6G,U7A (mixed) RNA 1: CACCCGUGCAAAAUUGCAGGGGUCUAAAACGACCUGAAUAUUUCAGAUCAAA RNA 2: GGGAAUGGAUCCACAUCUACGAAUUCGUUUUUGAUCUGAAAUAUAGAGGUCUGCAGAUCGGAAGAGCACACGU | 48.5 ± 5.5 nM
target 3 C1U,G3A (mixed) RNA 1: CACCCGUGCAAAAUUGCAGGGGUCUAAAACGACCUGAAUAUUUCAGAUCAAA RNA 2: GGGAAUGGAUCCACAUCUACGAAUUCGUUUUUGAUCUGAAAUAUUCAGAUUUGCAGAUCGGAAGAGCACACGU | 45 ± 10.5 nM
target 3 insG 3' of 6,insA 3' of 6 (mixed) RNA 1: CACCCGUGCAAAAUUGCAGGGGUCUAAAACGACCUGAAUAUUUCAGAUCAAA RNA 2: GGGAAUGGAUCCACAUCUACGAAUUCGUUUUUGAUCUGAAAUAUUCGAAGGUCUGCAGAUCGGAAGAGCACACGU | 8.8 ± 0.75 nM
target 3 insA 3' of 15,insU 3' of 3 (mixed) RNA 1: CACCCGUGCAAAAUUGCAGGGGUCUAAAACGACCUGAAUAUUUCAGAUCAAA RNA 2: GGGAAUGGAUCCACAUCUACGAAUUCGUUUUUGAUCUAGAAAUAUUCAGGUUCUGCAGAUCGGAAGAGCACACGU | 59.5 ± 12.5 nM
target 1 U3A,U11C (mixed) RNA 1: CACCCGUGCAAAAAUGCAGGGGUCUAAAACUGAGCGGAUAACCUCUCUAUGG RNA 2: GGGAAUGGAUCCACAUCUACGAAUUCGUACCAUAGAGAGGCUAUCCGCACACCGAGAUCGGAAGAGCACACGU | 10.3 ± 1.2 nM
target 1 insG 3' of 10,insG 3' of 10 (mixed) RNA 1: CACCCGUGCAAAAAUGCAGGGGUCUAAAACUGAGCGGAUAACCUCUCUAUGG RNA 2: GGGAAUGGAUCCACAUCUACGAAUUCGUACCAUAGAGAGGUUGGAUCCGCUCACCGAGAUCGGAAGAGCACACGU | 21.8 ± 2.2 nM
target 1 G15U,G17A (mixed) RNA 1: CACCCGUGCAAAAAUGCAGGGGUCUAAAACUGAGCGGAUAACCUCUCUAUGG RNA 2: GGGAAUGGAUCCACAUCUACGAAUUCGUACCAUAAAUAGGUUAUCCGCUCACCGAGAUCGGAAGAGCACACGU | 53 ± 5 nM
target 1 G12U,A18U (mixed) RNA 1: CACCCGUGCAAAAAUGCAGGGGUCUAAAACUGAGCGGAUAACCUCUCUAUGG RNA 2: GGGAAUGGAUCCACAUCUACGAAUUCGUACCAUUGAGAGUUUAUCCGCUCACCGAGAUCGGAAGAGCACACGU | 44 ± 10 nM

Source: PMC10786891, “Massively parallel profiling of RNA-targeting CRISPR-Cas13d”
